First the molecules themselves.
B1: S. cerevisiae Abp1 (full length; SH3 domain 535-592 mutated) / Hua2 (parent complex)
chain 1: MALEPIDYTTHSREIDAEYLKIVRGSDPDTTWLIISPNAKKEYEPESTGSSFHDFLQLFDETKVQYGLARVSPPGSDVEKIIIIGWCPDSAPLKTRASFAANFAAVANNLFKGYHVQVTARDEDDLDENELLMKISNAAGARYSIQTSSKQQGKASTPPVKKSFTPSKSPAPVSKKEPVKTPSPAPAAKISSRVNDNNDDDDWNEPELKERDFDQAPLKPNQSSYKPIGKIDLQKVIAEEKAKEDPRLVQKPTAAGSKIDPSSDIANLKNESKLKRDSEFNSFLGTTKPPSMTESSLKNDDDKVIKGFRNEKSPAQLWAERKAKQNSGNAETKAEAPKPEVPEDEPEGEPDVKDLKSKFEGLAASEKEEEEMENKFAPPPKKSEPTIISPKPFSKPQEPVKAEEAEQPKTDYKKIGNPLPGMHIEADNEEEPEENDDDWDDDEDEAAQPPLPSRNVASGAPVQKEEPEQEEIAPSLPSRNSIPAPKQEEAPEQAPEEEIEEEAEEAAPQLPSRSSAAPPPPPRRATPEKKPKENPWATAEYDYDAAEDNELTFVENDKIINIEFVDDDWWLGELEKDGSKGLFPSNYVSLGN
chain 2: MQQTKFGKMYLDHDSVVEYSEDEIVEADRITLGYKKRLSMIENQMRHLLEDFSLDVQQIEPILADLQKYYDAFLQLLQKRNKSLQCKRSTHQPVPSPMNSQTSTNAKVNLSGKLMKFQLNSVQKFDEENILRILQNKIEFEHYFQIDKGKKQKVLLLAVYQCLNGPTRLHKVLNIEGIIHNNSIRTILGKQVSSSKWTVFLYDVKLVLLAHRQDVPNLETSKMIVRYGDLFPCALYFKDHTAY

The variants in this test derive from B1. As to the kind of experiment: DHFR protein-fragment complementation in yeast (Abp1-DHFR F[1,2] x partner-DHFR F[3]), deep mutational scanning, second methotrexate selection vs reference; S. cerevisiae, DHFR-PCA selection in liquid with methotrexate at 30 C, two 72 h selections (the score uses the second); reference = the pre-selection culture.
As for chain 1 N592D, the screen value is -0.398 DMS score: mean over two replicates of log2(f_test/f_ref + 0.5)/ln 2, minus the synonymous-codon median (not a log2 ….
As for chain 1 N592Q, the figure is 0.855 DMS score: mean over two replicates of log2(f_test/f_ref + 0.5)/ln 2, minus the synonymous-codon median (not a log2 …; as for chain 1 N592M, 0.019 DMS score: mean over two replicates of log2(f_test/f_ref + 0.5)/ln 2, minus the synonymous-codon median (not a log2 …; as for chain 1 N592F, 0.212 DMS score: mean over two replicates of log2(f_test/f_ref + 0.5)/ln 2, minus the synonymous-codon median (not a log2 ….
With chain 1 N592T, the screen value is 0.35 DMS score: mean over two replicates of log2(f_test/f_ref + 0.5)/ln 2, minus the synonymous-codon median (not a log2 ….
Under chain 1 W569F stands 0.62 DMS score: mean over two replicates of log2(f_test/f_ref + 0.5)/ln 2, minus the synonymous-codon median (not a log2 ….
As for chain 1 D548F, the figure is -0.0924 DMS score: mean over two replicates of log2(f_test/f_ref + 0.5)/ln 2, minus the synonymous-codon median (not a log2 …; as for chain 1 D548E, -0.357 DMS score: mean over two replicates of log2(f_test/f_ref + 0.5)/ln 2, minus the synonymous-codon median (not a log2 …; as for chain 1 D548R, -1.06 DMS score: mean over two replicates of log2(f_test/f_ref + 0.5)/ln 2, minus the synonymous-codon median (not a log2 ….
As for chain 1 D548A, the figure is 0.159 DMS score: mean over two replicates of log2(f_test/f_ref + 0.5)/ln 2, minus the synonymous-codon median (not a log2 ….
For the variant chain 1 D548V, the screen value is 0.053 DMS score: mean over two replicates of log2(f_test/f_ref + 0.5)/ln 2, minus the synonymous-codon median (not a log2 ….
As for chain 1 Y541H, the figure is -1.01 DMS score: mean over two replicates of log2(f_test/f_ref + 0.5)/ln 2, minus the synonymous-codon median (not a log2 …; as for chain 1 Y541N, -1.91 DMS score: mean over two replicates of log2(f_test/f_ref + 0.5)/ln 2, minus the synonymous-codon median (not a log2 …; as for chain 1 Y541E, -1.48 DMS score: mean over two replicates of log2(f_test/f_ref + 0.5)/ln 2, minus the synonymous-codon median (not a log2 ….
As for chain 1 L582I, the screen value is -1.44 DMS score: mean over two replicates of log2(f_test/f_ref + 0.5)/ln 2, minus the synonymous-codon median (not a log2 ….
As for chain 1 L582W, the figure is 0.141 DMS score: mean over two replicates of log2(f_test/f_ref + 0.5)/ln 2, minus the synonymous-codon median (not a log2 …; as for chain 1 A546W, -0.986 DMS score: mean over two replicates of log2(f_test/f_ref + 0.5)/ln 2, minus the synonymous-codon median (not a log2 …; as for chain 1 A546S, 0.374 DMS score: mean over two replicates of log2(f_test/f_ref + 0.5)/ln 2, minus the synonymous-codon median (not a log2 ….
On to chain 1 A546I, for which the screen value is 0.793 DMS score: mean over two replicates of log2(f_test/f_ref + 0.5)/ln 2, minus the synonymous-codon median (not a log2 ….
chain 1 A546E: the screen value was 0.502 DMS score: mean over two replicates of log2(f_test/f_ref + 0.5)/ln 2, minus the synonymous-codon median (not a log2 ….
Under chain 1 A546L stands -0.283 DMS score: mean over two replicates of log2(f_test/f_ref + 0.5)/ln 2, minus the synonymous-codon median (not a log2 …; under chain 1 A546N, -0.272 DMS score: mean over two replicates of log2(f_test/f_ref + 0.5)/ln 2, minus the synonymous-codon median (not a log2 ….
As for chain 1 A546T, the figure is 0.35 DMS score: mean over two replicates of log2(f_test/f_ref + 0.5)/ln 2, minus the synonymous-codon median (not a log2 …; as for chain 1 S579Q, 0.0179 DMS score: mean over two replicates of log2(f_test/f_ref + 0.5)/ln 2, minus the synonymous-codon median (not a log2 …; as for chain 1 S579R, 0.286 DMS score: mean over two replicates of log2(f_test/f_ref + 0.5)/ln 2, minus the synonymous-codon median (not a log2 ….
Under chain 1 E555H stands -0.509 DMS score: mean over two replicates of log2(f_test/f_ref + 0.5)/ln 2, minus the synonymous-codon median (not a log2 …; under chain 1 E555P, -0.507 DMS score: mean over two replicates of log2(f_test/f_ref + 0.5)/ln 2, minus the synonymous-codon median (not a log2 …; under chain 1 E555Q, 0.0961 DMS score: mean over two replicates of log2(f_test/f_ref + 0.5)/ln 2, minus the synonymous-codon median (not a log2 ….
With chain 1 E555N, the screen value was -0.276 DMS score: mean over two replicates of log2(f_test/f_ref + 0.5)/ln 2, minus the synonymous-codon median (not a log2 ….
Under chain 1 E555R stands 0.193 DMS score: mean over two replicates of log2(f_test/f_ref + 0.5)/ln 2, minus the synonymous-codon median (not a log2 …; under chain 1 E555I, 0.585 DMS score: mean over two replicates of log2(f_test/f_ref + 0.5)/ln 2, minus the synonymous-codon median (not a log2 …; under chain 1 N556S, 0.415 DMS score: mean over two replicates of log2(f_test/f_ref + 0.5)/ln 2, minus the synonymous-codon median (not a log2 ….
As for chain 1 N556C, the figure is 0.444 DMS score: mean over two replicates of log2(f_test/f_ref + 0.5)/ln 2, minus the synonymous-codon median (not a log2 …; as for chain 1 N556A, -0.361 DMS score: mean over two replicates of log2(f_test/f_ref + 0.5)/ln 2, minus the synonymous-codon median (not a log2 …; as for chain 1 N556D, 0.175 DMS score: mean over two replicates of log2(f_test/f_ref + 0.5)/ln 2, minus the synonymous-codon median (not a log2 ….
As for chain 1 N556Y, the figure is 0.313 DMS score: mean over two replicates of log2(f_test/f_ref + 0.5)/ln 2, minus the synonymous-codon median (not a log2 …; as for chain 1 N556G, 0.625 DMS score: mean over two replicates of log2(f_test/f_ref + 0.5)/ln 2, minus the synonymous-codon median (not a log2 …; as for chain 1 K576Q, -0.814 DMS score: mean over two replicates of log2(f_test/f_ref + 0.5)/ln 2, minus the synonymous-codon median (not a log2 ….
For chain 1 K576H, the screen value was -0.301 DMS score: mean over two replicates of log2(f_test/f_ref + 0.5)/ln 2, minus the synonymous-codon median (not a log2 ….
As for chain 1 L574R, the screen value was 0.641 DMS score: mean over two replicates of log2(f_test/f_ref + 0.5)/ln 2, minus the synonymous-codon median (not a log2 ….
Under chain 1 L574K stands 0.584 DMS score: mean over two replicates of log2(f_test/f_ref + 0.5)/ln 2, minus the synonymous-codon median (not a log2 …; under chain 1 L574V, -1.03 DMS score: mean over two replicates of log2(f_test/f_ref + 0.5)/ln 2, minus the synonymous-codon median (not a log2 …; under chain 1 L574M, -0.568 DMS score: mean over two replicates of log2(f_test/f_ref + 0.5)/ln 2, minus the synonymous-codon median (not a log2 ….
Under chain 1 F564H stands -2.23 DMS score: mean over two replicates of log2(f_test/f_ref + 0.5)/ln 2, minus the synonymous-codon median (not a log2 ….
Under chain 1 F564Q stands -1.38 DMS score: mean over two replicates of log2(f_test/f_ref + 0.5)/ln 2, minus the synonymous-codon median (not a log2 ….
For chain 1 W536Y, the screen value is 0.0348 DMS score: mean over two replicates of log2(f_test/f_ref + 0.5)/ln 2, minus the synonymous-codon median (not a log2 ….
As for chain 1 W536Q, the screen value is -0.538 DMS score: mean over two replicates of log2(f_test/f_ref + 0.5)/ln 2, minus the synonymous-codon median (not a log2 ….
Turning to chain 1 W536C, the screen value is -0.449 DMS score: mean over two replicates of log2(f_test/f_ref + 0.5)/ln 2, minus the synonymous-codon median (not a log2 ….
As for chain 1 N586D, the figure is -1.73 DMS score: mean over two replicates of log2(f_test/f_ref + 0.5)/ln 2, minus the synonymous-codon median (not a log2 ….
As for chain 1 T552A, the screen value was -0.173 DMS score: mean over two replicates of log2(f_test/f_ref + 0.5)/ln 2, minus the synonymous-codon median (not a log2 ….
Consider chain 1 G578R, for which the screen value is -0.535 DMS score: mean over two replicates of log2(f_test/f_ref + 0.5)/ln 2, minus the synonymous-codon median (not a log2 ….
On to chain 1 G578Q, for which the screen value is -0.153 DMS score: mean over two replicates of log2(f_test/f_ref + 0.5)/ln 2, minus the synonymous-codon median (not a log2 ….
Under chain 1 S589C stands 0.299 DMS score: mean over two replicates of log2(f_test/f_ref + 0.5)/ln 2, minus the synonymous-codon median (not a log2 ….
Under chain 1 D566Q stands -2.94 DMS score: mean over two replicates of log2(f_test/f_ref + 0.5)/ln 2, minus the synonymous-codon median (not a log2 …; under chain 1 D566A, -2.64 DMS score: mean over two replicates of log2(f_test/f_ref + 0.5)/ln 2, minus the synonymous-codon median (not a log2 ….
With chain 1 D566G, the screen value was -2.66 DMS score: mean over two replicates of log2(f_test/f_ref + 0.5)/ln 2, minus the synonymous-codon median (not a log2 ….
As for chain 1 E563T, the figure is -1.2 DMS score: mean over two replicates of log2(f_test/f_ref + 0.5)/ln 2, minus the synonymous-codon median (not a log2 …; as for chain 1 E563V, -0.477 DMS score: mean over two replicates of log2(f_test/f_ref + 0.5)/ln 2, minus the synonymous-codon median (not a log2 ….
For chain 1 E563D, the screen value is 0.0054 DMS score: mean over two replicates of log2(f_test/f_ref + 0.5)/ln 2, minus the synonymous-codon median (not a log2 ….
Under chain 1 E563A stands -1.08 DMS score: mean over two replicates of log2(f_test/f_ref + 0.5)/ln 2, minus the synonymous-codon median (not a log2 …; under chain 1 L571D, -0.576 DMS score: mean over two replicates of log2(f_test/f_ref + 0.5)/ln 2, minus the synonymous-codon median (not a log2 ….
As for chain 1 L571C, the figure is -0.177 DMS score: mean over two replicates of log2(f_test/f_ref + 0.5)/ln 2, minus the synonymous-codon median (not a log2 …; as for chain 1 L571R, -1.06 DMS score: mean over two replicates of log2(f_test/f_ref + 0.5)/ln 2, minus the synonymous-codon median (not a log2 ….
Under chain 1 L571Q stands -0.179 DMS score: mean over two replicates of log2(f_test/f_ref + 0.5)/ln 2, minus the synonymous-codon median (not a log2 …; under chain 1 Y543F, 0.735 DMS score: mean over two replicates of log2(f_test/f_ref + 0.5)/ln 2, minus the synonymous-codon median (not a log2 …; under chain 1 D542A, 0.327 DMS score: mean over two replicates of log2(f_test/f_ref + 0.5)/ln 2, minus the synonymous-codon median (not a log2 ….
On to chain 1 D542E, for which the screen value was 0.0251 DMS score: mean over two replicates of log2(f_test/f_ref + 0.5)/ln 2, minus the synonymous-codon median (not a log2 ….
Under chain 1 D542P stands 0.905 DMS score: mean over two replicates of log2(f_test/f_ref + 0.5)/ln 2, minus the synonymous-codon median (not a log2 ….
Under chain 1 D542G stands 0.784 DMS score: mean over two replicates of log2(f_test/f_ref + 0.5)/ln 2, minus the synonymous-codon median (not a log2 ….
As for chain 1 D542S, the figure is 0.456 DMS score: mean over two replicates of log2(f_test/f_ref + 0.5)/ln 2, minus the synonymous-codon median (not a log2 …; as for chain 1 D542C, 0.23 DMS score: mean over two replicates of log2(f_test/f_ref + 0.5)/ln 2, minus the synonymous-codon median (not a log2 …; as for chain 1 D567G, -2.86 DMS score: mean over two replicates of log2(f_test/f_ref + 0.5)/ln 2, minus the synonymous-codon median (not a log2 ….
Turning to chain 1 D567E, the screen value was -1.62 DMS score: mean over two replicates of log2(f_test/f_ref + 0.5)/ln 2, minus the synonymous-codon median (not a log2 ….
Under chain 1 D567N stands -1.8 DMS score: mean over two replicates of log2(f_test/f_ref + 0.5)/ln 2, minus the synonymous-codon median (not a log2 …; under chain 1 D567V, -2.81 DMS score: mean over two replicates of log2(f_test/f_ref + 0.5)/ln 2, minus the synonymous-codon median (not a log2 ….
